From the DeepSol protein solubility set

experiment: soluble on expression in E. coli; label from the status in PepcDB or PDB records

Sequence	soluble on expression in E. coli
GPGSMSTALFVQATFFNTDNKSTDNKLMTTAAVSHNQSSQDNIMVVNLQKELQKRLEEDAGVKTLYITMGGEPRFNRALFENKSMALFVGDSMSIHHFTDDYGRITRRLLILYPMTFSRREEIPKQQILKKVEKAANQPEDNCGIEVVDLVELQKKHVYLEGQAAACYSYNGEFVYMALSGRSSEQVLSIICAPENLNIPNEKRFVFTAVLPHRSKENGRVIGEDVIPYTSLVGWCGKGICAWGLEFLRFPSEKDQEAFYEHLENNYSKVINLDESELRAFCGNAREVAIAHGNGERRVLCISHQALNALRPFKRQMLEDWYGLGNILPFYADVLERRAGRSVGSLVSVPVIHGEVLPLPGELGVIEAAKVDIKDGGC	soluble
GPGSMSTTAHATSMGPLPYPNALQSRHTTTEQRQIAAAAVRAYQGTLEQEKVLLQENDALLSEEEAGRLQRRVDNQAAADATAAQFRDRACKVVASVPGEQHQSEGGVIDIFHAACDGDVAALDACLRSASDINALGQPDPARYNGFQFKQRWLFRAPPLVFAAAFGREEAVRLLLEHGADPHVASTTGLRAQDYAAQRGYSAIVLMLTSGAPQ	soluble
GPGSMTHNRSGAVRRKVVQHDFYDSADQVGGVVLLNNPTNGSWEYDEYLRLLTTKRYSRIPSWEAHSTAQCYFVCADGVYPKLQSYVKERQVSHPHLRLFQFFPLCDAVIGDMDSYVTSYEKDGCERPSSTPEGGYGTVDDIPVEVLDTIHHRCRSAAALFREVDGSVPDTPLNGWKMLHEEHSHPLLRPLWLHIQCQITTDFKKALTLLKRLRKRYPDENAVVLPPVLRSPGAARILETGGGVVDQRNCGCDNDPIQERELCVAASQVEALLLPTVVAVGAFGGRFDHEVGAISTMLSESHDAHIVLINLFNTVFACQGGGWTQIVRQPEYEDKTCGLVNYGRMTECETSGLLWNVVKGRGRPSVTNDFVFDFGAFISVCNIVRREVITVDLRCLLTSVGESPADATTATGASDCEAQRGRGPPVVFSILRRQKKEGG	not soluble
GPGSMTQPSAVVAIGGGLRLLAQPAPTPTADGSSQALTDVFLSEYCAPLQRSSHHLHTHVPRYTVPTPASRRYTPRAGDPVLAIIARKVSQHYYYCYIGGSALAYMDALAFDGATKVSRPRLVEGDVVYCYVKPREGSSYVDGVHRSVASEVFDTTGEVEVSCTAAEVGLPPKDWTSGEAVFGPLQGGRVLHLPLVYVRRLLTPMGSSPEKASAQQRKRDHTEGEGSDGDEVPASYLLQLLGRRVPFEVAVGLNGLVWVRGLSSEADATAAARRTVAVSSCISEAQYDVTRAEMEARVEVYFPS	not soluble
GPGSMTSEEAVECTDALELVRCPSSNARVVPNRFDEEYIRGRLQEAEKIFEKAKTDVSRGLSKCEDWLGACEAFNEAGGLFASCGHPAEAARAFFHASIITRAFKDEEETTTALSLAVENMQLVEPLLAVNLMQKISETLKKGGFFFQAARCKRDSALLLEDRLGEPERAIELYREAIELYGNRSFMSSFSRGCMERITTLTVELKKYTEASKLFVEETAYAPRGRPKTRQFFLSLLCMLAEGFGDNDRYFDSLYYARKRFHALQEEERDFQHGKENRLVRKIIEANDNGSLTAFDTAVYEYRSSSTYVPDAVFENLIERCRKNLYEHLEQYI	soluble
GPGSMVEHTGLKYQFFIRAASVDWDARDRESMAAGLCPLYQLLHCDVEKLQFVVYCFGEGEAYMFEKAIQTVTKYVDEEKCIMAVRSLRQRETKGHIIYDVAKKETQPAQFFFLLSYAWGMIAVSFPKVTNYDKWEKQKGAARIIMNCPAEMDVKAMCAWMKRGLDPDEQTKYWKMVETHMEKVGPIPRYIFDANKFLAHFAATEDALDGINPRDGESHFTHGGVRLWYSEDPSHKLVRVVRTRGEVGAEVFLNAPISVCLGRRIPLYFWKRDE	not soluble
GPGSMVHSYGYKSGTRHLFAKKFRKHGAPSVSTILTNIKVGDYVDVVADSAVREGMPHKYYHGRTGIVWNVTPRGVGVIINKPVRTRTLRKRICVRFEHVRKSRCQEAFKAKEHQFQAYLAAKKAGKALPPLQKSSRLGGIVRPKTVEVLARRVADYEAMVPY	not soluble
GPGSMVSRDSRYIHRRWYLEDATLTIQQPKLELLVDFDDPSSFAFPANLPPTLGMRRAAAVATATGGLSGVMGLGSEGNLLADWREIGIPPFTEE	not soluble
GPGSMYQLWGGSPFKPHKQNPSIMIDKSGTEVRLIGESRDVLQTLATNPKWANTYLAISSTCDVPSWARELLGTFEFTDYAGKTVPMHSLFSDRIEIYKANKAKQHEMILQKVNKVDPSVSEYAQMLFFDNQTDNVRHVSGIGVTSCYCPSGMTKGTFEKGLEMWRRAAAVEDVRYDRVVECRA	not soluble
